Laboratory results as given in patent US20160289309A1.

Tests used:
[1] = biological target: Tau in cerebrospinal fluid of cynomolgus monkeys (free Tau / extracellular Tau, eTau) (cynomolgus monkey (Macaca fascicularis)); assay: cell-based or functional assay
[2] = biological target: Tau in cerebrospinal fluid of cynomolgus monkeys (free Tau / extracellular Tau, eTau) (cynomolgus monkey (Macaca fascicularis)); assay: estimate from a PK/PD model fitted to free eTau (ELISA) in CSF of cynomolgus monkeys dosed with hu-IPN002; not a direct binding assay

free eTau level in CSF between 8 and 168 hours, 20 mg/kg dose (% of baseline) [1]: 1.35 to 7.44 | free eTau level in CSF between 48 and 96 hours, 5 mg/kg dose (% of baseline) [1]: 17.3 to 21 | maximal reduction of CSF free eTau, single 5 mg/kg IV dose in cynomolgus monkeys [1]: 83% | maximal reduction of CSF free eTau, single 20 mg/kg IV dose in cynomolgus monkeys [1]: 99% | Kd [2]: 0.16 nM
B1: hu-IPN002 (antibody, IgG4, V domains shown)
VH: EVHLVESGGALVKPGGSLRLSCAASGFSFSKYGMSWVRQAPGKGLEWVATISSSGSRTYYPDSVKGRFTISRDNAKNTLYLQMNSLRAEDTAMYYCSISWDGAMDYWGQGTTVTVSS
VL: DVVMTQSPLSLPVTLGQPASISCKSSQSIVHSNGNTYLEWYLQKPGQSPQLLVYKVSNRFSGVPDRFSGSGSGTDFTLKISRVEAEDVGTYYCFQGSLVPWAFGGGTKVEIK
